As usually defined, the Kd is the concentration at which binding is half-saturated. Usually stoichiometry N stands for a count of units in the complex or per binding partner.

The results in this text go back to paper PMC11367644, “Structural basis for TNIP1 binding to FIP200 during mitophagy” (The Journal of Biological Chemistry, 2024).

For one data set, the target named is T1, FIP200 claw domain (WT) (Homo sapiens, UniProt Q8TDY2).
T1 construct: human FIP200 claw domain1490–1594 was cloned; SUMO (N, cleaved yes); made in house; host or cells: Escherichia coli Rosetta (DE3)
The experiment in a line: ITC of TNIP1/CCPG1 FIR peptides with FIP200 claw domain WT. To be noted: FIP200 claw WT 0.25 mM, peptide 4 mM, 20 °C, buffer B (50 mM NaH2PO4, 150 mM NaCl, pH 7.0), single binding site model, fitted value ± SD, N.D. = no detectable binding. On the procedure:
(§1) DNA fragment of human FIP200 claw domain1490–1594 was cloned into a modified pET28a (Novagen) plasmid, which contained an N-terminal SUMO-tag and a ULP1 protease cleavage site. All mutants were generated using a MutanBEST Kit (TaKaRa) and confirmed by DNA sequencing. The proteins were expressed in Escherichia coli Rosetta (DE3) cells (Novagen) cultured in LB medium at 37 °C to A600 = 1.0 and then shifted to 16 °C for 24 h after induction with 0.2 mM IPTG. Bacterial pellets were resuspended in buffer A (50 mM NaH2PO4 and 1 M NaCl, pH 7.0) and lysed by sonication. The crude lysate was then centrifuged at 14,000 rpm for 30 min at 4 °C. The supernatant was applied to a Ni-NTA column (QIAGEN), followed by size-exclusion chromatography using a Superdex 200 (GE Healthcare) column. After cleavage with ULP1 protease overnight at 16 °C to remove the SUMO-tag, an additional purification step was performed with a HiTrap SP FF column. The purified protein was concentrated to ∼20 mg/ml in buffer B (50 mM NaH2PO4, 150 mM NaCl, pH 7.0) and stored at −80 °C.
(§2) ITC assays were performed on a Microcal PEAQ-ITC instrument (Malvern) at 20 °C. The concentrations of proteins were determined spectrophotometrically. […] Thermodynamic data were analyzed with a single binding site model using MicroCal PEAQ-ITC Analysis Software provided by the manufacturer (Malvern).

For data set [1], the system named is FIP200 claw domain / p-CCPG1 FIR2 complex. The experiment in a line: Competitive fluorescence polarization: displacement of FITC-pCCPG1 FIR2 from FIP200 claw domain. The format is binding, human. To be noted: fit of Equation 3 to competitive FP data; FIP200 claw 4 μM, 50 nM FITC-pCCPG1 FIR2, buffer B, triplicate. An excerpt: Next, we investigated the binding of TNIP1 peptides to FIP200 in distinct states while competing with p-CCPG1 FIR2 peptide. Assuming that in solution, there is a thermodynamic equilibrium as expressed in Equation 1:(1) FIP200−TNIP1_pS123⇆w2u2FIP200⇄w1u1FIP200/p−CCPG1FIR2 where u1 and u2 represent the rates of forming the FIP200/p-CCPG1 FIR2 and FIP200-TNIP1_pS123 binding complexes, respectively, and w1 or w2 is the corresponding dissociation rate, then the probability of forming FIP200/p-CCPG1 FIR2 ( P1 ) can be expressed in the following form:(2) P1=u1w2/w1w2+u1w2+[…]
We further assumed that the binding process is diffusion-controlled, meaning that u1 and u2 are proportional to the concentrations of p-CCPG1 FIR2 and TNIP1_pS123, respectively. In addition, w1 and w2 are determined by the activation barrier in the dissociation free energy profile using the transition state theory. Consequently, the following two relations hold. […]
For competitive FP experiments, FIP200 claw domain at 4 μM and 50 nM FITC-pCCPG1 FIR2 in buffer B were mixed with increasing concentrations of unlabeled TNIP1_FIR^long or TNIP1 FIR_pS123^long peptides, respectively. The samples were measured with the CLARIOsta plate reader with FITC-fluorescence polarization filter set. […]

The next data set concerns the target TNIP1_pS123 peptide. The experiment in a line: ITC. (In general: Isothermal titration calorimetry measures the heat released or taken up as one component is titrated into another.)
The target in data set [2] is T2, FIP200 claw domain Y1564A (Homo sapiens, UniProt Q8TDY2, Y1564A).
T2 construct: human FIP200 claw domain1490–1594 was cloned; SUMO (N, cleaved yes); made in house; host or cells: Escherichia coli Rosetta (DE3)
Kind of data set: ITC with FIP200 claw domain mutant Y1564A. To be noted: 20 °C, buffer B pH 7.0, N.D. = no detectable binding. The procedure:
as §1, §2

The target in data set [3] is T3, FIP200 claw domain K1568A (Homo sapiens, UniProt Q8TDY2, K1568A).
T3 construct: human FIP200 claw domain1490–1594 was cloned; SUMO (N, cleaved yes); made in house; host or cells: Escherichia coli Rosetta (DE3)
Kind of data set: ITC with FIP200 claw domain mutant K1568A. To be noted: 20 °C, buffer B pH 7.0, fitted value ± error. It is filed as binding. The procedure: as §1, §2

Data set [4] deals with T4, FIP200 claw domain K1569A (Homo sapiens, UniProt Q8TDY2, K1569A).
T4 construct: human FIP200 claw domain1490–1594 was cloned; SUMO (N, cleaved yes); made in house; host or cells: Escherichia coli Rosetta (DE3)
The experiment in a line: ITC with FIP200 claw domain mutant K1569A. To be noted: 20 °C, buffer B pH 7.0, N.D. = no detectable binding. On the procedure: as §1, §2

The target in data set [5] is T5, FIP200 claw domain R1573E (Homo sapiens, UniProt Q8TDY2, R1573E).
T5 construct: human FIP200 claw domain1490–1594 was cloned; SUMO (N, cleaved yes); made in house; host or cells: Escherichia coli Rosetta (DE3)
Kind of data set: ITC with FIP200 claw domain mutant R1573E. To be noted: 20 °C, buffer B pH 7.0, N.D. = no detectable binding. The procedure: as §1, §2

Data set [6] concerns the target T6, FIP200 claw domain F1574A (Homo sapiens, UniProt Q8TDY2, F1574A).
T6 construct: human FIP200 claw domain1490–1594 was cloned; SUMO (N, cleaved yes); made in house; host or cells: Escherichia coli Rosetta (DE3)
The experiment in a line: ITC with FIP200 claw domain mutant F1574A. To be noted: 20 °C, buffer B pH 7.0, N.D. = no detectable binding. The procedure:
as §1, §2

Data set [7] concerns the target T7, FIP200 claw domain F1582A (Homo sapiens, UniProt Q8TDY2, F1582A).
T7 construct: human FIP200 claw domain1490–1594 was cloned; SUMO (N, cleaved yes); made in house; host or cells: Escherichia coli Rosetta (DE3)
The experiment in a line: ITC with FIP200 claw domain mutant F1582A. To be noted: 20 °C, buffer B pH 7.0, N.D. = no detectable binding. The procedure: as §1, §2

The target of data set [8] is T8, FIP200 claw domain (1490-1594) (human, UniProt Q8TDY2 1490-1594).
T8 construct: the ITC N counts peptide per claw chain; also called FIP200 claw domain WT; WT; source: E. coli Rosetta (DE3), purified (Ni-NTA, Superdex 200, HiTrap SP FF); not shown: SUMO, N-terminal, cleaved
The experiment in a line: ITC; peptide (4 mM) injected into FIP200 claw protein (0.25 mM); 20 °C; buffer B (50 mM NaH2PO4, 150 mM NaCl, pH 7.0); single binding site model.

Data set [9] concerns the target T9, human FIP200 claw domain (1490-1594) (human, UniProt Q8TDY2 1490-1594).
T9 chain: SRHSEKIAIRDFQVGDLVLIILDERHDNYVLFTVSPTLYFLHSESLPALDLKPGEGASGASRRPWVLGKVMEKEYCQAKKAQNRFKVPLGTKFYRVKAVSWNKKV
The experiment in a line: ITC.

Data set [10] deals with the molecule itself. The experiment in a line: crystal structure; FIP200 claw and TNIP1 FIR peptide mixed at a 1:5 molar ratio, 15 mg/ml; vapor diffusion at 16 °C or 20 °C; molecular replacement.
The target in data set [11] is T10, FIP200 claw domain (1490-1594) R1514A (human, UniProt Q8TDY2 1490-1594, R1514A).
T10 construct: source: E. coli Rosetta (DE3), purified (Ni-NTA, Superdex 200, HiTrap SP FF); not shown: SUMO, N-terminal, cleaved
Kind of data set: ITC; peptide (4 mM) injected into FIP200 claw protein (0.25 mM); 20 °C; buffer B (50 mM NaH2PO4, 150 mM NaCl, pH 7.0); single binding site model. To be noted: both partners purified.

The target of data set [12] is T11, FIP200 claw domain (1490-1594) D1516A (human, UniProt Q8TDY2 1490-1594, D1516A).
T11 construct: source: E. coli Rosetta (DE3), purified (Ni-NTA, Superdex 200, HiTrap SP FF); not shown: SUMO, N-terminal, cleaved
The data set is described as above. To be noted: both partners purified.

The target in data set [13] is T12, FIP200 claw domain (1490-1594) Q1566A (human, UniProt Q8TDY2 1490-1594, Q1566A).
T12 construct: source: E. coli Rosetta (DE3), purified (Ni-NTA, Superdex 200, HiTrap SP FF); not shown: SUMO, N-terminal, cleaved
The data set is described as above. To be noted: both partners purified.

In data set [14] the target is T13, FIP200 claw domain (1490-1594) K1568A (human, UniProt Q8TDY2 1490-1594, K1568A).
T13 construct: source: E. coli Rosetta (DE3), purified (Ni-NTA, Superdex 200, HiTrap SP FF); not shown: SUMO, N-terminal, cleaved
The data set is described as above. To be noted: both partners purified.

Read-outs that look alike come from different tables or passages of the source. Square brackets hold non-standard residues; d marks the D form. Ends that are not written are not given here. Peptide text beside a SMILES is read from it. pS = N[C@@H](COP(=O)(O)O)C(=O)O

T6 sequence (Q8TDY2 1490-1594 F1574A): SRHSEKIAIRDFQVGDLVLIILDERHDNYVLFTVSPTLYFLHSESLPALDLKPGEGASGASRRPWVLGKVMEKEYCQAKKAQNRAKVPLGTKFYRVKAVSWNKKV
T4 sequence (Q8TDY2 1490-1594 K1569A): as the sequence (Q8TDY2 1490-1594 F1574A) above, with K80A, A85F counted along it
T3 sequence (Q8TDY2 1490-1594 K1568A): as the sequence (Q8TDY2 1490-1594 F1574A) above, with K79A, A85F counted along it
T5 sequence (Q8TDY2 1490-1594 R1573E): as the sequence (Q8TDY2 1490-1594 F1574A) above, with R84E, A85F counted along it
T2 sequence (Q8TDY2 1490-1594 Y1564A): as the sequence (Q8TDY2 1490-1594 F1574A) above, with Y75A, A85F counted along it
T7 sequence (Q8TDY2 1490-1594 F1582A): as the sequence (Q8TDY2 1490-1594 F1574A) above, with A85F, F93A counted along it

Turning to “SSGTSSEFEVVTPEEQ [TNIP1^long, unmodified TNIP1 FIR peptide with an elongated C terminus]”, the KD result on FIP200 claw domain (WT) was “Weak binding”. The “a0 (constant of Equation 3, y1 = 1/(1+a0[TNIP1]))” value in data set [1] amounted to 0.0006 µM⁻¹.
“human FIP200 claw domain (1490-1594) (from UniProt Q8TDY2) Q1566A”: the ratio to parent with TNIP1_pS123 peptide was 0.79.
As for SSGTSSEFEVV [TNIP1], the KD entry on FIP200 claw domain (WT) is “no detectable binding affinity”.
Regarding `CC(C)[C@H](NC(=O)[C@@H](NC(=O)[C@H](CCC(=O)O)NC(=O)[C@H](Cc1ccccc1)NC(=O)[C@H](CCC(=O)O)NC(=O)[C@H](COP(=O)(O)O)NC(=O)[C@H](CO)NC(=O)[C@@H](NC(=O)CNC(=O)[C@H](CO)NC(=O)[C@@H](N)CO)[C@@H](C)O)C(C)C)C(=O)O` [TNIP1_pS123] (H-SSGTS[pS]EFEVV-OH), the KD result in [2] was “significantly abolished”; in [3] it was “Weak binding”; in [4], “significantly abolished”; in data set [5] it was “significantly abolished”; in data set [6] it was “significantly abolished”; in [7], “significantly abolished”.

B1: pCCPG1 FIR2 peptide (peptide)
peptide: TASDD[pS]DIVTLEPPK
notes: FIR2 motif of the autophagy receptor CCPG1; source: synthetic peptide (GL Biochem, Shanghai)
With B1, in [8] (both partners purified), the Kd was found to be 9.3 µM and the “stoichiometry N” value was determined as 1.1.
Turning to SSGT[pS][pS]EFEVV [TNIP1_pS122pS123 peptide], in data set [9], binding was characterised by a dissociation constant (Kd) of 195 µM. The stoichiometry N in data set [8] came out at 1.33.

B2: human FIP200 claw domain (1490-1594) (domain or fragment, UniProt Q8TDY2 1490-1594, looked up)
chain: SRHSEKIAIRDFQVGDLVLIILDERHDNYVLFTVSPTLYFLHSESLPALDLKPGEGASGASRRPWVLGKVMEKEYCQAKKAQNRFKVPLGTKFYRVKAVSWNKKV
notes: Forms a homodimer in the crystals; source: E. coli Rosetta (DE3), purified (Ni-NTA, Superdex 200, HiTrap SP FF); not shown: SUMO, N-terminal, cleaved
As for B2, the binding result in data set [10] is on record as “binds”.

B3: TNIP1_pS123 peptide (peptide)
peptide: SSGTS[pS]EFEVV
notes: FIR motif of TNIP1; source: synthetic peptide (GL Biochem, Shanghai)
Regarding B3, the Kd in data set [9] amounted to 160 µM; in [11], 178 µM; in data set [12] it was 175 µM; in data set [13] it was 126 µM. The stoichiometry N in data set [8] was determined as 1.01; in data set [11] it was 1.48; in [12], 1.18; in data set [13] it was 1.49.

B4: TNIP1_pS123^long peptide (peptide)
peptide: SSGTS[pS]EFEVVTPEEQ
notes: FIR motif of TNIP1 with an elongated C terminus (T129-Q133); source: synthetic peptide (GL Biochem, Shanghai)
Consider B4, for which the dissociation constant (Kd) in data set [8] (both partners purified) was found to be 45.4 µM; in [11] it was 43.8 µM; in data set [12] it was 35 µM; in [13], 45 µM; in data set [14] it was 133 µM. Moreover, the “stoichiometry N” value amounted to 1.03 in [8] (both partners purified); 0.97 in [11]; 0.98 in [12]; 0.96 in data set [13]; 0.93 in data set [14].

B5: CCPG1 FIR2 peptide (unmodified) (peptide)
peptide: TASDDSDIVTLEPPK
notes: as for B1
On to B5, for which, in data set [8] (both partners purified), the Kd amounted to 84.3 µM and the “stoichiometry N” value stood at 0.96.
For SSGT[pS]SEFEVV [TNIP1_pS122 peptide], the Kd in data set [9] amounted to 260 µM. The stoichiometry N in data set [8] came to 0.96.
